Literature values as cited in article PMC5477003.

Molecular target: integrin αIIbβ3 (Homo sapiens) (UniProt P08514)

CD40L (from UniProt P29965)
Kd: 30 nM
